T1: His6-MBP-CTC1–STN1–TEN1 (human, UniProt Q2NKJ3 1-1217; Q9H668 1-368; Q86WV5 1-123, RED-tris-NTA second-generation dye on the His6 tag)
T1 chain 1: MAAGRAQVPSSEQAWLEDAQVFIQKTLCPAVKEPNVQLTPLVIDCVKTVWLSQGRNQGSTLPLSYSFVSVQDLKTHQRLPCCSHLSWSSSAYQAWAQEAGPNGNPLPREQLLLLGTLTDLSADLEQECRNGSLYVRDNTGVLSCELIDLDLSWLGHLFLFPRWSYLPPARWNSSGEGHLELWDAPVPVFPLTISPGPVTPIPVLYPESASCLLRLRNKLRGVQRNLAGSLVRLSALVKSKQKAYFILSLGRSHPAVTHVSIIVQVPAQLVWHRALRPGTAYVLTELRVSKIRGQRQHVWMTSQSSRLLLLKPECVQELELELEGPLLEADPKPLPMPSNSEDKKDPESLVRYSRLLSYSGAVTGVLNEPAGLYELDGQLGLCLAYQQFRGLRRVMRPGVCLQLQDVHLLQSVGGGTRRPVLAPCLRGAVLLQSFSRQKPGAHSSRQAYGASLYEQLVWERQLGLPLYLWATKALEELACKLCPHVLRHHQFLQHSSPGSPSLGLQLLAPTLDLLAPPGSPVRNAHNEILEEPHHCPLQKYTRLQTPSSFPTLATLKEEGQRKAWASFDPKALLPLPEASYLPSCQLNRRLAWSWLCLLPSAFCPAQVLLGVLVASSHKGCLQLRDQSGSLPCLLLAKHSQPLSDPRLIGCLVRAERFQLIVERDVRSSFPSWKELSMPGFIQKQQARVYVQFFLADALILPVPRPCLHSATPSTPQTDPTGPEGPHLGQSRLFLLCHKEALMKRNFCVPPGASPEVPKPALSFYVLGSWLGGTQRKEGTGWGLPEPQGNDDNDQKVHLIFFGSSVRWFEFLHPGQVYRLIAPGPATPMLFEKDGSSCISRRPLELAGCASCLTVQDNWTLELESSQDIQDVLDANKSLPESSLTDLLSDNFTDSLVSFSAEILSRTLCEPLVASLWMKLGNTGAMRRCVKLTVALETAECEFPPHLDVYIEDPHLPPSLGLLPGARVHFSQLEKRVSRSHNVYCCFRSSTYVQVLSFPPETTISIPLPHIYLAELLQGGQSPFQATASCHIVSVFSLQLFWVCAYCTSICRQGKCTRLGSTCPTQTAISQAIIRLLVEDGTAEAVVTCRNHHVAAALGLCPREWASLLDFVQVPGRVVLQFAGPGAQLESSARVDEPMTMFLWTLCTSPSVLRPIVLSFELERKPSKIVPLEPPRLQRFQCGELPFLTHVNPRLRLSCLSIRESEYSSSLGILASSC
T1 chain 2: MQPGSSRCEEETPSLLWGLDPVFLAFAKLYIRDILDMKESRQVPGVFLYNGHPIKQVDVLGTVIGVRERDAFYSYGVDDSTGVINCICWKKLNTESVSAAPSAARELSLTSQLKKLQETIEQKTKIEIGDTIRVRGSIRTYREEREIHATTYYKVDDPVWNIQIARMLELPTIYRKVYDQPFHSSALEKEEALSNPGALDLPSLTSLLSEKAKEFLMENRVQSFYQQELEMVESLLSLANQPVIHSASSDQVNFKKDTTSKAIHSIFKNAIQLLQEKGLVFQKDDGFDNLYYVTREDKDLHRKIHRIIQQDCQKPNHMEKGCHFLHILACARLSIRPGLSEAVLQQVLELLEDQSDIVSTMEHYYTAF
T1 chain 3: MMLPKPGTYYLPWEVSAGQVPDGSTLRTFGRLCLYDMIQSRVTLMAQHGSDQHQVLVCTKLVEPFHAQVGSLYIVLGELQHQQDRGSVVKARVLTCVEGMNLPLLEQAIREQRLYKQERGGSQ

B1: POLA1^CTD with the wild-type CRL (domain or fragment, human, UniProt P09884 1265-1462, looked up)
chain: AQLTDEEKYRDCERFKCPCPTCGTENIYDNVFDGSGTDMEPSLYRCSNIDCKASPLTFTVQLSNKLIMDIRRFIKKYYDGWLICEEPTCRNRTRHLPLQFSRTGPLCPACMKATLQPEYSDKSLYTQLCFYRYIFDAECALEKLTTDHEKDKLKKQFFTPKVLQDYRKLKNTAEQFLSRSGYSEVNLSKLFAGCAVKS
notes: also called CRL^WT; source: E. coli Rosetta(DE3), purified (Ni-NTA, Ulp1 cleavage, reverse Ni-NTA, SEC); not shown: His6, N-terminal, cleaved; Smt3, N-terminal, cleaved
B2: POLA1^CTD with the CRL swapped for the S. pombe short loop (domain or fragment, human | S. pombe)
chain: AQLTDEEKYRDCERFKCPCPTCGTENIYDNVFDGSGTDMEPSLYRCSNIDCKASPLTFTVQLSNKLIMDIRRFIKKYYDGWLICEEPTCRNRTRHLPLQFSRTGPLCPACMKATLQPEYSDKSLYTQLCFYRYIFQTTTGATKVLQDYRKLKNTAEQFLSRSGYSEVNLSKLFAGCAVKS
notes: short loop of the S. pombe POLA1 orthologue, in place of the human CRL (residues 1400-1424); also called CRL^(S. pombe); source: E. coli Rosetta(DE3), purified (Ni-NTA, Ulp1 cleavage, reverse Ni-NTA, SEC); not shown: His6, N-terminal, cleaved; Smt3, N-terminal, cleaved
B3: POLA1^CTD with the CRL swapped for a GGSGGS-linker (domain or fragment, human)
chain: AQLTDEEKYRDCERFKCPCPTCGTENIYDNVFDGSGTDMEPSLYRCSNIDCKASPLTFTVQLSNKLIMDIRRFIKKYYDGWLICEEPTCRNRTRHLPLQFSRTGPLCPACMKATLQPEYSDKSLYTQLCFYRYIFDAEGGSGGSTPKVLQDYRKLKNTAEQFLSRSGYSEVNLSKLFAGCAVKS
notes: linker in place of the CRL (residues 1403-1422); also called CRL^GGSGGS; source: E. coli Rosetta(DE3), purified (Ni-NTA, Ulp1 cleavage, reverse Ni-NTA, SEC); not shown: His6, N-terminal, cleaved; Smt3, N-terminal, cleaved
B4: CTC1–STN1–TEN1 (CST) complex (complex, human)
chain 1: T1 chain 1
chain 2: T1 chain 2
chain 3: T1 chain 3
notes: human CTC1; human STN1; human TEN1; Expressed from pBIG1a(His6-MBP-PreSc-CTC1/STN1/TEN1); tag removed with rhinovirus 3C protease; source: Tni insect cells (baculovirus), purified (Ni-NTA, 3C protease cleavage, heparin, SEC); not shown: His6, N-terminal, cleaved; MBP, N-terminal, cleaved; copies: + +

Key:
[1] = biological target: CTC1–STN1–TEN1 (CST) complex (human) (UniProt Q2NKJ3); assay: cryo-EM structure; CST and Polα/primase (PP^FL or PP^ΔN) mixed equimolar (1.5 μM each) with (GGTTAG)3 ssDNA, cross-linked by GraFix (glutaraldehyde, glycerol gradient), 20 mM HEPES pH 7.5, 150 mM NaCl, 10 mM MgCl2, 0.5 mM TCEP
His6-MBP-CTC1–STN1–TEN1 [2] = biological target: T1, His6-MBP-CTC1–STN1–TEN1; assay: MST; binding event 1, independent experiment 2
His6-MBP-CTC1–STN1–TEN1 [3] = biological target: T1, His6-MBP-CTC1–STN1–TEN1; assay: MST; binding event 2 (second site), independent experiment 3
His6-MBP-CTC1–STN1–TEN1 [4] = biological target: T2, His6-MBP-CTC1–STN1–TEN1 (human, UniProt Q2NKJ3 1-1217; Q9H668 1-368; Q86WV5 1-123, RED-tris-NTA second-generation dye on the His6 tag); assay: MST; 50 nM RED-tris-NTA-labeled His6-MBP-CST with serial dilutions of unlabeled POLA1^CTD constructs; room temperature; 20 mM HEPES pH 7.5, 150 mM NaCl, 5 mM DTT, 0.05% Tween-20; CRL^WT data split into two binding events; conditions: both partners purified
T2 construct: human CTC1; human STN1; human TEN1; A PreScission site lies between MBP and CTC1; also called His6-MBP-CST; fluorescently labeled CST; source: Tni insect cells (baculovirus), purified (Ni-NTA, heparin, SEC; protease-cleavage step omitted); not shown: His6, N-terminal, kept; MBP, N-terminal, kept; copies: + +

His6-MBP-CTC1–STN1–TEN1 [5] = biological target: T1, His6-MBP-CTC1–STN1–TEN1; assay: MST; binding event 2 (second site), independent experiment 1
His6-MBP-CTC1–STN1–TEN1 [6] = biological target: T1, His6-MBP-CTC1–STN1–TEN1; assay: MST; binding event 1, independent experiment 3
His6-MBP-CTC1–STN1–TEN1 [7] = biological target: T1, His6-MBP-CTC1–STN1–TEN1; assay: MST; binding event 2 (second site), independent experiment 2
His6-MBP-CTC1–STN1–TEN1 [8] = biological target: T1, His6-MBP-CTC1–STN1–TEN1; assay: MST; binding event 1, independent experiment 1
[9] = biological target: T3, full-length Polα/primase (POLA1^FL/POLA2/PRIM1/PRIM2) (human, UniProt P09884 1-1462; Q14181 1-598; P49642 1-420; P49643 1-509); assay: SEC; purified proteins mixed (PP^FL and CST equimolar; CST with twofold molar excess of His6-MBP-POLA1^N), 1 h at 4 °C, HiLoad Superdex 200 16/600 PG, 20 mM HEPES pH 7.5, 150 mM NaCl, 0.5 mM TCEP, 5% glycerol; conditions: both partners purified
T3 construct: human POLA2; human PRIM1; human PRIM2; The methods describe no tag cleavage for this complex (PreSc site after MBP, TEV site after StrepII); also called PP^FL; DNA polymerase α–primase; source: Tni insect cells (baculovirus), purified (Ni-NTA, RESOURCE Q, SEC); copies: + + +
T3 sequence (Q14181 whole entry, chain 2 of 3): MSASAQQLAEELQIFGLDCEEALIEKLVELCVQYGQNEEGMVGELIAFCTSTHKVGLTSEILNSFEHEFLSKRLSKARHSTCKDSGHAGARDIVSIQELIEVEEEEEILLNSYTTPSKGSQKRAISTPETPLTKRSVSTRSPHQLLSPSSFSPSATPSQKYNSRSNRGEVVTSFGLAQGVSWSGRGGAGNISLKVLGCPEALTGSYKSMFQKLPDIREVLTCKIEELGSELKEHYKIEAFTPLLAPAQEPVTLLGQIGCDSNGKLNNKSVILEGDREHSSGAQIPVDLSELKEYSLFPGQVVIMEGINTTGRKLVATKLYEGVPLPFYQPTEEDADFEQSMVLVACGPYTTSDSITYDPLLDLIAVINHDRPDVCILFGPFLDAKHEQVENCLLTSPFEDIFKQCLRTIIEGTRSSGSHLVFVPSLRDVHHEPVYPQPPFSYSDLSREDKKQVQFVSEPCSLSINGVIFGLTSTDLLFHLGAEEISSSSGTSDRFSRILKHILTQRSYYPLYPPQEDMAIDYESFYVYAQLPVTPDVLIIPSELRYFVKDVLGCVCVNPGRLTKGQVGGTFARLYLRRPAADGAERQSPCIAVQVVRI
T3 sequence (P49642 whole entry, chain 3 of 3): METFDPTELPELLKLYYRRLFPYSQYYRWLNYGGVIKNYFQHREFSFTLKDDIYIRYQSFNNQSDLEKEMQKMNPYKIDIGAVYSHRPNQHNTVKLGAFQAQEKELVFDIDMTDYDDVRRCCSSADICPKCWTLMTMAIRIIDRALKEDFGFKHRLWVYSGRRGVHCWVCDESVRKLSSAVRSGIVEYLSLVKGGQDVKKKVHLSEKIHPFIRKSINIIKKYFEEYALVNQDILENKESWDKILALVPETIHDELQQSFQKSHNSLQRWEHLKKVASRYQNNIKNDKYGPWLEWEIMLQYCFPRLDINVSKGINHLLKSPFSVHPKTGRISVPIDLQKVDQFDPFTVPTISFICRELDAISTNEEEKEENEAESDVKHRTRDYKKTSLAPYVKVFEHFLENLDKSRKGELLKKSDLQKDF
T3 sequence (P49643 whole entry, chain 4 of 3): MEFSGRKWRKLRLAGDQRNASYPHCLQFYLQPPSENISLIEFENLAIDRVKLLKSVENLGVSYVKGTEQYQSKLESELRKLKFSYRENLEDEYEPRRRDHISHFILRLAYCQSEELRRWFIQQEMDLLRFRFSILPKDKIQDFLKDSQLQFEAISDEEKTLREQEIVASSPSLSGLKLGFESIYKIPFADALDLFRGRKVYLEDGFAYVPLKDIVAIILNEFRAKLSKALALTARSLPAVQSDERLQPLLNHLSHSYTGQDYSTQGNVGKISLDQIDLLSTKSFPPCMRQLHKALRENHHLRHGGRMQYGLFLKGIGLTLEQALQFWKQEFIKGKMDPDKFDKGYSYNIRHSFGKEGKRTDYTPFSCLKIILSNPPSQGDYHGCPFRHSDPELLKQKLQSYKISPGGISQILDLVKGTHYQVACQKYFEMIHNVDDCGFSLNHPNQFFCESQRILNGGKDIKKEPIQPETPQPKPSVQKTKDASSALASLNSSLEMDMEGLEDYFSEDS

| Molecule | stoichiometry N [1] | Kd (His6-MBP-CTC1–STN1–TEN1 [2]) [µM] | Kd (His6-MBP-CTC1–STN1–TEN1 [3]) [µM] | KD of binding event 1 (His6-MBP-CTC1–STN1–TEN1 [4]) [µM] | KD of binding event 2 (His6-MBP-CTC1–STN1–TEN1 [4]) [µM] | Kd (His6-MBP-CTC1–STN1–TEN1 [5]) [µM] | Kd (His6-MBP-CTC1–STN1–TEN1 [6]) [µM] | Kd (His6-MBP-CTC1–STN1–TEN1 [7]) [µM] | Kd (His6-MBP-CTC1–STN1–TEN1 [8]) [µM] | binding result [9] |
| --- | --- | --- | --- | --- | --- | --- | --- | --- | --- | --- |
| full-length Polα/primase (POLA1^FL/POLA2/PRIM1/PRIM2), P09884 1-1462; Q14181 1-598; P49642 1-420; P49643 1-509 | 1 |  |  |  |  |  |  |  |  |  |
| B1 |  | 13 | 156 | ~3.3 | ~122 | 56 | 14 | 216 | 1.4 |  |
| B2 |  |  | 77 |  | ~88 | 134 |  | 75 |  |  |
| B3 |  |  | 82 |  | ~96 | 133 |  | 79 |  |  |
| B4 |  |  |  |  |  |  |  |  |  | binds |
